Assay results: the supplement of paper PMC10567573

B1: LPCAT4 (parent)
chain: HDPLYGKLFSTYLRPPHTSRGTSQ

Variants of: B1
Experiment: protein stability index of a GFP-peptide fusion (GPS, HEK-293T) (PSI 1-6); higher = more stable
Conditions: c terminus: a fixed tail appended
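Also: lentivirally expressed fusions sorted by FACS into six bins by GFP to DsRed ratio, PSI derived from sequencing read proportions per bin multiplied by bin number.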

Variant	protein stability index
HDPLYGKLFSTYLHPPHTSRGTSQ [R14H]	3.28
HDPLYGKLFSTYLKPPHTSRGTSQ [R14K]	2.66
HDPLYGKLFSTYLFPPHTSRGTSQ [R14F]	2.81
HDPLYGKLFSTYLEPPHTSRGTSQ [R14E]	3.4
HDPLYGKLFSTYLLPPHTSRGTSQ [R14L]	2.32
HDPLYGKLFSTYLQPPHTSRGTSQ [R14Q]	2.83
HDPLYGKLFSTYLTPPHTSRGTSQ [R14T]	3.09
HDPLYGKLFSTYLPPPHTSRGTSQ [R14P]	3.71
HDPLYGKLFSTYLIPPHTSRGTSQ [R14I]	3.17
HDPLYGKLFSTYLDPPHTSRGTSQ [R14D]	3.9
HDPLYGKLFSTYLMPPHTSRGTSQ [R14M]	2.79
HDPLYGKLFSTYLVPPHTSRGTSQ [R14V]	3.17
HDPLYGKLFSTYLNPPHTSRGTSQ [R14N]	3.04
HDPLYGKLFSTYLWPPHTSRGTSQ [R14W]	2.52
HDPLYGKLFSTYLGPPHTSRGTSQ [R14G]	3.73
HDPLYGKLFSTYLAPPHTSRGTSQ [R14A]	3.08
HDPLYGKLFSTYLYPPHTSRGTSQ [R14Y]	2.81
HDPLYGKLFSTYLCPPHTSRGTSQ [R14C]	2.78
HDPLYGKLFSTYLSPPHTSRGTSQ [R14S]	2.69
HDPLYGKLFWTYLRPPHTSRGTSQ [S10W]	2.44
HDPLYGKLFRTYLRPPHTSRGTSQ [S10R]	3.02
HDPLYGKLFFTYLRPPHTSRGTSQ [S10F]	1.96
HDPLYGKLFQTYLRPPHTSRGTSQ [S10Q]	3.78
HDPLYGKLFVTYLRPPHTSRGTSQ [S10V]	2.64

Variant	protein stability index
HDPLYGKLFETYLRPPHTSRGTSQ [S10E]	4.21
HDPLYGKLFYTYLRPPHTSRGTSQ [S10Y]	1.67
HDPLYGKLFCTYLRPPHTSRGTSQ [S10C]	1.97
HDPLYGKLFATYLRPPHTSRGTSQ [S10A]	2.96
HDPLYGKLFGTYLRPPHTSRGTSQ [S10G]	3.34
HDPLYGKLFNTYLRPPHTSRGTSQ [S10N]	3.97
HDPLYGKLFITYLRPPHTSRGTSQ [S10I]	2.49
HDPLYGKLFTTYLRPPHTSRGTSQ [S10T]	3.63
HDPLYGKLFHTYLRPPHTSRGTSQ [S10H]	3.8
HDPLYGKLFKTYLRPPHTSRGTSQ [S10K]	3.46
HDPLYGKLFDTYLRPPHTSRGTSQ [S10D]	4.06
HDPLYGKLFMTYLRPPHTSRGTSQ [S10M]	2.72
HDPLYGKLFPTYLRPPHTSRGTSQ [S10P]	4.13
HDPLYGKLFLTYLRPPHTSRGTSQ [S10L]	2.96
HDPLYGGLFSTYLRPPHTSRGTSQ [K7G]	3.25
HDPLYGDLFSTYLRPPHTSRGTSQ [K7D]	3.28
HDPLYGLLFSTYLRPPHTSRGTSQ [K7L]	2.46
HDPLYGCLFSTYLRPPHTSRGTSQ [K7C]	2.04
HDPLYGRLFSTYLRPPHTSRGTSQ [K7R]	2.46
HDPLYGQLFSTYLRPPHTSRGTSQ [K7Q]	3.12
HDPLYGFLFSTYLRPPHTSRGTSQ [K7F]	1.94
HDPLYGMLFSTYLRPPHTSRGTSQ [K7M]	2.65
HDPLYGNLFSTYLRPPHTSRGTSQ [K7N]	3.36
HDPLYGILFSTYLRPPHTSRGTSQ [K7I]	2.75

Variant	protein stability index
HDPLYGWLFSTYLRPPHTSRGTSQ [K7W]	1.96
HDPLYGELFSTYLRPPHTSRGTSQ [K7E]	3.29
HDPLYGSLFSTYLRPPHTSRGTSQ [K7S]	2.58
HDPLYGTLFSTYLRPPHTSRGTSQ [K7T]	3.43
HDPLYGHLFSTYLRPPHTSRGTSQ [K7H]	2
HDPLYGPLFSTYLRPPHTSRGTSQ [K7P]	2.36
HDPLYGALFSTYLRPPHTSRGTSQ [K7A]	2.55
HDPLYGVLFSTYLRPPHTSRGTSQ [K7V]	2.68
HDPLYGYLFSTYLRPPHTSRGTSQ [K7Y]	1.78
HDPLYNKLFSTYLRPPHTSRGTSQ [G6N]	2.08
HDPLYYKLFSTYLRPPHTSRGTSQ [G6Y]	2.42
HDPLYQKLFSTYLRPPHTSRGTSQ [G6Q]	2.35
HDPLYHKLFSTYLRPPHTSRGTSQ [G6H]	1.88
HDPLYAKLFSTYLRPPHTSRGTSQ [G6A]	1.77
HDPLYPKLFSTYLRPPHTSRGTSQ [G6P]	3.46
HDPLYKKLFSTYLRPPHTSRGTSQ [G6K]	1.73
HDPLYSKLFSTYLRPPHTSRGTSQ [G6S]	1.27
HDPLYFKLFSTYLRPPHTSRGTSQ [G6F]	1.58
HDPLYEKLFSTYLRPPHTSRGTSQ [G6E]	3.19
HDPLYRKLFSTYLRPPHTSRGTSQ [G6R]	1.76
HDPLYDKLFSTYLRPPHTSRGTSQ [G6D]	3.61
HDPLYCKLFSTYLRPPHTSRGTSQ [G6C]	2.17
HDPLYIKLFSTYLRPPHTSRGTSQ [G6I]	1.6
HDPLYMKLFSTYLRPPHTSRGTSQ [G6M]	1.7

Variant	protein stability index
HDPLYWKLFSTYLRPPHTSRGTSQ [G6W]	2.06
HDPLYVKLFSTYLRPPHTSRGTSQ [G6V]	2.56
HDPLYLKLFSTYLRPPHTSRGTSQ [G6L]	2.18
HDPLYTKLFSTYLRPPHTSRGTSQ [G6T]	1.86
HDPLYGKLFSTFLRPPHTSRGTSQ [Y12F]	2.8
HDPLYGKLFSTQLRPPHTSRGTSQ [Y12Q]	3.53
HDPLYGKLFSTELRPPHTSRGTSQ [Y12E]	4.3
HDPLYGKLFSTHLRPPHTSRGTSQ [Y12H]	3.31
HDPLYGKLFSTVLRPPHTSRGTSQ [Y12V]	2.92
HDPLYGKLFSTILRPPHTSRGTSQ [Y12I]	3.11
HDPLYGKLFSTWLRPPHTSRGTSQ [Y12W]	2.53
HDPLYGKLFSTGLRPPHTSRGTSQ [Y12G]	3.36
HDPLYGKLFSTMLRPPHTSRGTSQ [Y12M]	2.76
HDPLYGKLFSTPLRPPHTSRGTSQ [Y12P]	4.14
HDPLYGKLFSTTLRPPHTSRGTSQ [Y12T]	3.95
HDPLYGKLFSTNLRPPHTSRGTSQ [Y12N]	3.4
HDPLYGKLFSTALRPPHTSRGTSQ [Y12A]	3.74
HDPLYGKLFSTRLRPPHTSRGTSQ [Y12R]	3.76
HDPLYGKLFSTCLRPPHTSRGTSQ [Y12C]	3.01
HDPLYGKLFSTSLRPPHTSRGTSQ [Y12S]	3.97
HDPLYGKLFSTDLRPPHTSRGTSQ [Y12D]	4.06
HDPLYGKLFSTLLRPPHTSRGTSQ [Y12L]	2.85
HDPLYGKLFSTKLRPPHTSRGTSQ [Y12K]	3.91
HDPLYGKLFSTYKRPPHTSRGTSQ [L13K]	3.44

Variant	protein stability index
HDPLYGKLFSTYFRPPHTSRGTSQ [L13F]	3.21
HDPLYGKLFSTYGRPPHTSRGTSQ [L13G]	3.62
HDPLYGKLFSTYPRPPHTSRGTSQ [L13P]	3.21
HDPLYGKLFSTYSRPPHTSRGTSQ [L13S]	4.04
HDPLYGKLFSTYTRPPHTSRGTSQ [L13T]	3.72
HDPLYGKLFSTYQRPPHTSRGTSQ [L13Q]	4.06
HDPLYGKLFSTYIRPPHTSRGTSQ [L13I]	3.06
HDPLYGKLFSTYERPPHTSRGTSQ [L13E]	3.99
HDPLYGKLFSTYHRPPHTSRGTSQ [L13H]	3.88
HDPLYGKLFSTYWRPPHTSRGTSQ [L13W]	2.77
HDPLYGKLFSTYCRPPHTSRGTSQ [L13C]	2.77
HDPLYGKLFSTYVRPPHTSRGTSQ [L13V]	3.72
HDPLYGKLFSTYRRPPHTSRGTSQ [L13R]	3.39
HDPLYGKLFSTYDRPPHTSRGTSQ [L13D]	4.11
HDPLYGKLFSTYNRPPHTSRGTSQ [L13N]	4.16
HDPLYGKLFSTYYRPPHTSRGTSQ [L13Y]	2.78
HDPLYGKLFSTYARPPHTSRGTSQ [L13A]	3.73
HDPLYGKLFSTYMRPPHTSRGTSQ [L13M]	3.1
HDPLNGKLFSTYLRPPHTSRGTSQ [Y5N]	2.85
HDPLDGKLFSTYLRPPHTSRGTSQ [Y5D]	3.92
HDPLGGKLFSTYLRPPHTSRGTSQ [Y5G]	2.76
HDPLQGKLFSTYLRPPHTSRGTSQ [Y5Q]	3.82
HDPLLGKLFSTYLRPPHTSRGTSQ [Y5L]	3.05
HDPLRGKLFSTYLRPPHTSRGTSQ [Y5R]	3.18

Variant	protein stability index
HDPLTGKLFSTYLRPPHTSRGTSQ [Y5T]	3.36
HDPLMGKLFSTYLRPPHTSRGTSQ [Y5M]	3.11
HDPLWGKLFSTYLRPPHTSRGTSQ [Y5W]	2.11
HDPLHGKLFSTYLRPPHTSRGTSQ [Y5H]	2.98
HDPLFGKLFSTYLRPPHTSRGTSQ [Y5F]	2.47
HDPLVGKLFSTYLRPPHTSRGTSQ [Y5V]	3.3
HDPLIGKLFSTYLRPPHTSRGTSQ [Y5I]	2.69
HDPLKGKLFSTYLRPPHTSRGTSQ [Y5K]	3.43
HDPLPGKLFSTYLRPPHTSRGTSQ [Y5P]	3.65
HDPLEGKLFSTYLRPPHTSRGTSQ [Y5E]	3.67
HDPLSGKLFSTYLRPPHTSRGTSQ [Y5S]	3.21
HDPLYGKLFSSYLRPPHTSRGTSQ [T11S]	2.63
HDPLYGKLFSVYLRPPHTSRGTSQ [T11V]	2.24
HDPLYGKLFSYYLRPPHTSRGTSQ [T11Y]	2.82
HDPLYGKLFSPYLRPPHTSRGTSQ [T11P]	2.48
HDPLYGKLFSGYLRPPHTSRGTSQ [T11G]	2.49
HDPLYGKLFSMYLRPPHTSRGTSQ [T11M]	2.92
HDPLYGKLFSKYLRPPHTSRGTSQ [T11K]	3.45
HDPLYGKLFSDYLRPPHTSRGTSQ [T11D]	3.46
HDPLYGKLFSQYLRPPHTSRGTSQ [T11Q]	3.43
HDPLYGKLFSWYLRPPHTSRGTSQ [T11W]	2.77
HDPLYGKLFSEYLRPPHTSRGTSQ [T11E]	3.07
HDPLYGKLFSRYLRPPHTSRGTSQ [T11R]	2.94
HDPLYGKLFSAYLRPPHTSRGTSQ [T11A]	4.05

Variant	protein stability index
HDPLYGKLFSNYLRPPHTSRGTSQ [T11N]	3.02
HDPLYGKLFSLYLRPPHTSRGTSQ [T11L]	2.39
HDPLYGKLFSFYLRPPHTSRGTSQ [T11F]	2.75
HDPLYGKLFSCYLRPPHTSRGTSQ [T11C]	2.48
HDPLYGKLFSHYLRPPHTSRGTSQ [T11H]	3.05
HDPLYGKLFSIYLRPPHTSRGTSQ [T11I]	2.46
HDPLYGKLISTYLRPPHTSRGTSQ [F9I]	3.82
HDPLYGKLDSTYLRPPHTSRGTSQ [F9D]	4.41
HDPLYGKLESTYLRPPHTSRGTSQ [F9E]	4.54
HDPLYGKLNSTYLRPPHTSRGTSQ [F9N]	4.76
HDPLYGKLKSTYLRPPHTSRGTSQ [F9K]	4.05
HDPLYGKLLSTYLRPPHTSRGTSQ [F9L]	3.54
HDPLYGKLCSTYLRPPHTSRGTSQ [F9C]	3.71
HDPLYGKLYSTYLRPPHTSRGTSQ [F9Y]	3.8
HDPLYGKLASTYLRPPHTSRGTSQ [F9A]	4.32
HDPLYGKLWSTYLRPPHTSRGTSQ [F9W]	2.43
HDPLYGKLSSTYLRPPHTSRGTSQ [F9S]	4.74
HDPLYGKLTSTYLRPPHTSRGTSQ [F9T]	4.12
HDPLYGKLVSTYLRPPHTSRGTSQ [F9V]	4.24
HDPLYGKLRSTYLRPPHTSRGTSQ [F9R]	4.13
HDPLYGKLMSTYLRPPHTSRGTSQ [F9M]	4.35
HDPLYGKLGSTYLRPPHTSRGTSQ [F9G]	4.09
HDPLYGKLQSTYLRPPHTSRGTSQ [F9Q]	4.37
HDPLYGKLPSTYLRPPHTSRGTSQ [F9P]	3.65

Variant	protein stability index
HDPLYGKLHSTYLRPPHTSRGTSQ [F9H]	4.33
HDPLYGKNFSTYLRPPHTSRGTSQ [L8N]	4.19
HDPLYGKEFSTYLRPPHTSRGTSQ [L8E]	4.85
HDPLYGKHFSTYLRPPHTSRGTSQ [L8H]	4.44
HDPLYGKIFSTYLRPPHTSRGTSQ [L8I]	3.25
HDPLYGKCFSTYLRPPHTSRGTSQ [L8C]	4.01
HDPLYGKMFSTYLRPPHTSRGTSQ [L8M]	3.73
HDPLYGKQFSTYLRPPHTSRGTSQ [L8Q]	4.58
HDPLYGKPFSTYLRPPHTSRGTSQ [L8P]	4.26
HDPLYGKAFSTYLRPPHTSRGTSQ [L8A]	4.59
HDPLYGKDFSTYLRPPHTSRGTSQ [L8D]	4.88
HDPLYGKVFSTYLRPPHTSRGTSQ [L8V]	3.62
HDPLYGKYFSTYLRPPHTSRGTSQ [L8Y]	2.58
HDPLYGKSFSTYLRPPHTSRGTSQ [L8S]	4.68
HDPLYGKFFSTYLRPPHTSRGTSQ [L8F]	2.15
HDPLYGKTFSTYLRPPHTSRGTSQ [L8T]	4.31
HDPLYGKGFSTYLRPPHTSRGTSQ [L8G]	4.66
HDPLYGKWFSTYLRPPHTSRGTSQ [L8W]	2.37
HDPLYGKKFSTYLRPPHTSRGTSQ [L8K]	3.91
HDPLYGKRFSTYLRPPHTSRGTSQ [L8R]	4.27
